Measurements reported in PMC6271298, “Pharmacophore Generation from a Drug-like Core Molecule Surrounded by a Library Peptide via the 10BASEd-T on Bacteriophage T7” (Molecules, 2014).
5/6‑FAM = 5/6-carboxyfluorescein

Target: T1, streptavidin (UniProt P22629 25-183)
T1 construct: streptavidin; Commercial streptavidin is usually a homotetramer of a processed (core) form; also called SA; source: bought: Wako Pure Chemical Industries (ELISA)
Assay: fluorescence polarisation; 4 pmol FAM-labelled peptide with various concentrations of the protein; 50 mM Tris-HCl pH 8.0, 150 mM NaCl, 1 mM TCEP-NaOH, 30 °C; Klotz plot, non-linear least squares fit
Conditions: both partners purified

T1 sequence (P22629 25-183): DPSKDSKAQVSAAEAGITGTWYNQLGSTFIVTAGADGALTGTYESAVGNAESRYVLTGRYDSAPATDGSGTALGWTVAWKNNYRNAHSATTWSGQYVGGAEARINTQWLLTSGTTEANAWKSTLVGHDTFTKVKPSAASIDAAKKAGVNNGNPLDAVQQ

B1: Sal-conjugated fluorescent peptide possessing the sequence of clone 7 (K-5/6-FAM-A-M-W-C*-Q-Y-H-P-Q-N-C*-Y-K-M-NH2) (peptide)
peptide: KAMWCQYHPQNCYKM
modifications: 5/6-FAM on the N-terminal lysine (K-5/6-FAM); Sal-conjugated Cys (C*) at both cysteines; C-terminal amide (NH2)
notes: Linear peptide; both cysteines are alkylated with 4-acetamidosalicylic acid (thioether); also called Sal-conjugated peptide; Sal-conjugated linear peptide; source: synthetic peptide (solid phase synthesis, HPLC), then conjugated with Sal-IA and purified by reverse-phase HPLC
**Q.** With B1 as the binder, how does the Kd read?
**A.** 180 nM

B2: mock (Sal-unconjugated) fluorescent peptide (H2N-K-5/6-FAM-A-M-W-C-Q-Y-H-P-Q-N-C-Y-K-M-NH2) (peptide)
peptide: H-K(5/6‑FAM)AMWCQYHPQNCYKM-NH2
modifications: cysteine pairing not given here
notes: cysteines not alkylated; Assayed under reducing conditions (1 mM TCEP), so the cysteines are free thiols; also called mock peptide; unmodified fluorescent peptide; source: synthetic peptide (solid phase synthesis, reverse-phase HPLC)
**Q.** For B2, which “fold lower affinity than the Sal-conjugated peptide” value is on record?
**A.** ~10 fold
